In this experiment the target is human heteromultimeric ASIC-2S.2 channel (human ASIC2A + human ASIC3) (human) (UniProt Q16515). Kind of experiment: cell-based or functional assay.

Data on one substance can be found in patent US20030219858A1.

Chain of human heteromultimeric ASIC-2S.2 channel (human ASIC2A + human ASIC3) (human) (Q16515 whole entry, chain 1 of 2): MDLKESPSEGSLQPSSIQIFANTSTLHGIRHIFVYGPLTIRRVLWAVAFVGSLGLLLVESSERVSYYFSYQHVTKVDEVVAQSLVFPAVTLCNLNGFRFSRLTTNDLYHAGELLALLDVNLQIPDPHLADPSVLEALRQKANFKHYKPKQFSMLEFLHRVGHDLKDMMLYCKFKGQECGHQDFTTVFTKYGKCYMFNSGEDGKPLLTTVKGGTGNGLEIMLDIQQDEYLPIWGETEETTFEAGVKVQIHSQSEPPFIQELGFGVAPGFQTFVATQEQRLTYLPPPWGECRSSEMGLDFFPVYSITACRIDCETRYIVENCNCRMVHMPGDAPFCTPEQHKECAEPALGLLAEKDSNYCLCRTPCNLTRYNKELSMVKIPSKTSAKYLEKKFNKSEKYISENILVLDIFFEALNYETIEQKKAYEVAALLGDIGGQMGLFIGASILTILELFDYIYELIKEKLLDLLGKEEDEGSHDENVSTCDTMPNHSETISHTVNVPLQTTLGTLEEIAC
Chain of human heteromultimeric ASIC-2S.2 channel (human ASIC2A + human ASIC3) (human) (chain, as listed by the source, chain 2 of 2): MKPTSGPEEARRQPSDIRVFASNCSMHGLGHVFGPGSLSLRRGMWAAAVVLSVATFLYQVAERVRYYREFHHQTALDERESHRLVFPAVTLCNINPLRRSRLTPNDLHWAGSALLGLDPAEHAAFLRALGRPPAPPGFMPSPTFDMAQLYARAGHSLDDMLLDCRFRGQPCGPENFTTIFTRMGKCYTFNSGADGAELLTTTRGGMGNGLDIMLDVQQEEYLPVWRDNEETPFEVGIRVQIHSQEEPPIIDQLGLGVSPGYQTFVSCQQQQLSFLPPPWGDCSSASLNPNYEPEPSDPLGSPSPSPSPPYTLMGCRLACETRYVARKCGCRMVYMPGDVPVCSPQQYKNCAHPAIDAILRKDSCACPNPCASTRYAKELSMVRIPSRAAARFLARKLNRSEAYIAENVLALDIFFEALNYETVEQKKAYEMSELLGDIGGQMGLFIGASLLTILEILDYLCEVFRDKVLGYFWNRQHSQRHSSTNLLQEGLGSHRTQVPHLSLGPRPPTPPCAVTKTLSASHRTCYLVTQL

With “NPFF (from UniProt O15130 69-76) (peptide)”, the EC50 of potentiation of currents induced by pH 4 stood at 2 µM.
